B1: mouse MUSK full-length extracellular region (E22 to T494), Avi-His6, biotinylated (domain or fragment)
chain: EKLPKAPVITTPLETVDALVEEVATFMCAVESYPQPEISWTRNKILIKLFDTRYSIRENGQLLTILSVEDSDDGIYCCIANNGVGGAVESCGALQVKMKPKITRPPINVKIIEGLKAVLPCTTMGNPKPSVSWIKGDNALRENSRIAVLESGSLRIHNVQKEDAGQYRCVAKNSLGTAYSKLVKLEVEVFARILRAPESHNVTFGSFVTLRCTAIGIPVPTISWIENGNAVSSGSIQESVKDRVIDSRLQLFITKPGLYTCIATNKHGEKFSTAKAAATVSIAEWSKSQKDSQGYCAQYRGEVCDAVLAKDALVFFNTSYRDPEDAQELLIHTAWNELKAVSPLCRPAAEALLCNHLFQECSPGVVPTPMPICREYCLAVKELFCAKEWQAMEGKAHRGLYRSGMHLLPVPECSKLPSMHRDPTACTRLPYLDYKKENITTFPSITSSRPSADIPNLPASTSSFAVSPAYSMT
modifications: biotin (on the Avi tag, BirA in vitro)
B2: human MUSK Fz domain and C-terminal flanking sequence (K314 to T495), Avi-His6, biotinylated (domain or fragment)
chain: KGYCAQYRGEVCNAVLAKDALVFLNTSYADPEEAQELLVHTAWNELKVVSPVCRPAAEALLCNHIFQECSPGVVPTPIPICREYCLAVKELFCAKEWLVMEEKTHRGLYRSEMHLLSVPECSKLPSMHWDPTACARLPHLDYNKENLKTFPPMTSSKPSVDIPNLPSSSSSSFSVSPTYSMT
modifications: biotin (on the Avi tag, BirA in vitro)
B3: human MUSK full-length extracellular region (E22 to T495), Avi-His6, biotinylated (domain or fragment)
chain: EKLPKAPVITTPLETVDALVEEVATFMCAVESYPQPEISWTRNKILIKLFDTRYSIRENGQLLTILSVEDSDDGIYCCTANNGVGGAVESCGALQVKMKPKITRPPINVKIIEGLKAVLPCTTMGNPKPSVSWIKGDSPLRENSRIAVLESGSLRIHNVQKEDAGQYRCVAKNSLGTAYSKVVKLEVEVFARILRAPESHNVTFGSFVTLHCTATGIPVPTITWIENGNAVSSGSIQESVKDRVIDSRLQLFITKPGLYTCIATNKHGEKFSTAKAAATISIAEWSKPQKDNKGYCAQYRGEVCNAVLAKDALVFLNTSYADPEEAQELLVHTAWNELKVVSPVCRPAAEALLCNHIFQECSPGVVPTPIPICREYCLAVKELFCAKEWLVMEEKTHRGLYRSEMHLLSVPECSKLPSMHWDPTACARLPHLDYNKENLKTFPPMTSSKPSVDIPNLPSSSSSSFSVSPTYSMT
modifications: biotin (on the Avi tag, BirA in vitro)
B4: mouse MUSK Fz domain and C-terminal flanking sequence (D307 to T494), Avi-His6, biotinylated (domain or fragment)
chain: DSQGYCAQYRGEVCDAVLAKDALVFFNTSYRDPEDAQELLIHTAWNELKAVSPLCRPAAEALLCNHLFQECSPGVVPTPMPICREYCLAVKELFCAKEWQAMEGKAHRGLYRSGMHLLPVPECSKLPSMHRDPTACTRLPYLDYKKENITTFPSITSSRPSADIPNLPASTSSFAVSPAYSMT
modifications: biotin (on the Avi tag, BirA in vitro)

What was measured:
Test in all cases: FACS
[1] = target: B3
[2] = target: B4
[3] = target: B2
[4] = target: B1
X2 hIgG = target: X2 hIgG
X3 mIgG = target: X3 mIgG
X17 hIgG = target: X17 hIgG
X3 hIgG = target: X3 hIgG

Row | Kd [1] | Kd [2] | Kd [3] | Kd [4] | Kd (X2 hIgG) | Kd (X3 mIgG) | Kd (X17 hIgG) | Kd (X3 hIgG) | Binder
1 | 0.97 nM | 0.74 nM | 0.61 nM | 1.1 nM |  |  |  |  | MUSK agonist antibody X17, mouse IgG2a-LALAPG format (antibody, V domains shown) VH: EVQLVESGGGLVQPGGSLRLSCAASGFTISYSSIHWVRQAPGKGLEWVASIYSSSGSTYYADSVKGRFTISADTSKNTAYLQMNSLRAEDTAVYYCARGDHGYYVFGYLGMDYWGQGTLVTVSS VL: DIQMTQSPSSLSASVGDRVTITCRASQSVSSAVAWYQQKPGKAPKLLIYSASSLYSGVPSRFSGSRSGTDFTLTISSLQPEDFATYYCQQSYKPGALITFGQGTKVEIK
2 |  |  |  |  | 0.307 nM | 0.118 nM | 1.04 nM | 0.079 nM | B1
3 |  |  |  |  | 0.421 nM | 0.079 nM | 0.56 nM | 0.057 nM | B2
4 |  |  |  |  | 0.478 nM | 0.113 nM | 0.86 nM | 0.074 nM | B3
5 |  |  |  |  | 0.265 nM | 0.096 nM | 0.68 nM | 0.07 nM | B4
